Here are results for two proteins from article doi:10.1101/2024.10.18.618978v3.

Substrate in series [1]: NCCCNCCCCNCCCN
Nature of the series: colorimetric DTNB SSAT assay. It counts as biochemical, Staphylococcus aureus. Conditions: 1 mM AcCoA, pH 7.5, 37 °C, approximate value given in Methods.

Substrate in series [2]: NCCCNCCCCNCCCN
Briefly: purified protein. Conditions: 1 mM AcCoA, pH 7.5, 37 °C.

B1: PaiASa (Staphylococcus aureus subsp. aureus USA300) (protein)
chain: MAGIIKEISEQNASELVELATRTFYDTFGSYYDDKDFDQFFKDNYTVEKFTQEINHVDSFHYFYQEDGANVGYIKMNINSAQTEEMGETYLEVQRIYFLKDFQGGGRGSQLIELAEKIAQEHNKHKIWLGVWEHNPRAQAFYKRHGFKVVGEHHFQTGDVTDTDLIMEKEL
As usually defined, the Km is the substrate concentration at which the rate is half of its maximum. Regarding B1, the Km in series [1] turned out to be 2000 µM.

B2: SpeG (Staphylococcus aureus subsp. aureus USA300) (protein)
chain: MKLRALEYSDLLFVHELNNEYSIMSYWFEEPYESLTELQHLFDKHLLDESERRFIVEDENQVVGIVELVEINYIHRNCEIQIIIKPEFSGKGYAKFAFEKAIIYAFNILNMHKIYLYVDADNKKAIHIYESQGFKTEGLLKEQFYTKGKYKDAYFMSLLKSEYIL
Consider B2, for which, in series [2] (Michaelis-Menten fit), the Michaelis-Menten constant (Km) turned out to be 1312 ± 348.1 µM. For the same protein, the K0.5 in series [2] (allosteric sigmoidal fit) is 757.5 ± 63.35 µM.
